Where “and” joins values, the source holds several entries; their conditions need not be identical. Equal values may be shown once. Read-outs that look alike come from different tables or passages of the source.

Assay [1] deals with T1, extracellular domain of human AXL protein (AXL-ECD) (human, UniProt P30530 31-449).
T1 construct: expressed in HEK293T cells; coated on the ELISA plate; also called AXL-ECD protein; human AXL extracellular domain protein
T1 sequence: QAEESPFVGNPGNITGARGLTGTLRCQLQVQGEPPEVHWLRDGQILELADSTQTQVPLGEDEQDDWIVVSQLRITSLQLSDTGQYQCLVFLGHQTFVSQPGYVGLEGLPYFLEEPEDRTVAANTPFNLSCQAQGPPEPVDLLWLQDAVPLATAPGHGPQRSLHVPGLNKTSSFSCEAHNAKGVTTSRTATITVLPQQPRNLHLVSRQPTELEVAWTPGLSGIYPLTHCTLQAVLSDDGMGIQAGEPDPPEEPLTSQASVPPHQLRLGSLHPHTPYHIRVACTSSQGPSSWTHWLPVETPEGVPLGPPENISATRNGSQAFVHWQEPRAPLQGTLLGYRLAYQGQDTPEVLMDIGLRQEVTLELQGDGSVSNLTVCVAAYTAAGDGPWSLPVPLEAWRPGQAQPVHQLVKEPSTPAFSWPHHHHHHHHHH
In words: ELISA, plate-coated AXL-ECD. For orientation: An ELISA detects its analyte on a solid surface through an enzyme-linked reagent.

Assay [2] has as its target T1, extracellular domain of human AXL …. Briefly: ELISA, plate-coated AXL-ECD. On the procedure:
The extracellular domain of AXL protein (AXL-ECD) was diluted to […] with the coating solution, and coated onto ELISA plate with 100 μL/well at 4° C. overnight. The excess antigen was washed off. The plate was blocked with 1% BSA at room temperature for 2 h, then each monoclonal antibody in a 3-fold dilution was added at 100 µL/well. The plate was incubated at room temperature for 1 h; the unbound antibody was washed off, and appropriate concentration of anti-mouse secondary antibody labeled with horseradish peroxidase was added at 100 µL/well. The plate was incubated at room temperature for 0.5 h. The unbound secondary antibody was washed off. TMB Substrate was added and reacted for about 15 minutes. 1N HCL was added at 50 µL/well to stop the color reaction. Then the absorbance was measured at 450 nm and the obtained data was analyzed.
The source holds these as a separate data set.

Assay [3] deals with T2, human AXL on the surface of tumor cells (human, UniProt P30530 26-894).
T2 construct: whole, on cells; endogenous protein of human tumor cell lines; the cell line is named under assay or readout; also called AXL on the cell surface
T2 sequence (looked up): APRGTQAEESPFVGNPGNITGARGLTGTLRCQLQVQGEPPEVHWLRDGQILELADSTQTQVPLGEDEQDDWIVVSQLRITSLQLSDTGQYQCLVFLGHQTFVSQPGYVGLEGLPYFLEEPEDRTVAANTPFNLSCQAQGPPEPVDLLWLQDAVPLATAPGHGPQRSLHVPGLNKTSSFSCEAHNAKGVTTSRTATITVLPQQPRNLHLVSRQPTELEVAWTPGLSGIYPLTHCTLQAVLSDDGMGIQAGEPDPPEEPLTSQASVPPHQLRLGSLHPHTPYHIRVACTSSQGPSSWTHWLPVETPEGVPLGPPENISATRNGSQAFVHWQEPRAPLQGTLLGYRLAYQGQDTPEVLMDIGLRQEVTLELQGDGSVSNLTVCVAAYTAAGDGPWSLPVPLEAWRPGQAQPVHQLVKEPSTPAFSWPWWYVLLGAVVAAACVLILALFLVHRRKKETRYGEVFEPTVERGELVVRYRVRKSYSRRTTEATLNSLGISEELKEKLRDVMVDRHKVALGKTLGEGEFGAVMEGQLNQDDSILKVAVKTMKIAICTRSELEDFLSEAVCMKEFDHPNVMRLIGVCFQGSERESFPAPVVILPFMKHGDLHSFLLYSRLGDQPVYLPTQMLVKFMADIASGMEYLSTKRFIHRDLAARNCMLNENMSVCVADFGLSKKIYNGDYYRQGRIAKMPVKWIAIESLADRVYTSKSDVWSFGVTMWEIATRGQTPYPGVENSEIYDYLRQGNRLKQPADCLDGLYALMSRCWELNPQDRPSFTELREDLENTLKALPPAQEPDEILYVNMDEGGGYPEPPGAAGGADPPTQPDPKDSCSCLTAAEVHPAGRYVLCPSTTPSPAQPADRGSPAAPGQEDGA
Briefly: FACS on MDA-MB-231 cells.

Assay [4] addresses T2, human AXL on the surface of tumor cells. Briefly: FACS, 5 ug/mL antibody, LCLC-103H cells compared with AXL-low MDA-MB-453 cells. On the procedure: (§1) 3×10⁵ tumor cells were mixed well with the antibody (final concentration was 5 μg/mL), and then incubated at 4° C. for 1 hour. The cells were washed twice with PBS to remove unbound primary antibody. Then 200 μL ([…]) PE-labeled secondary antibody was added and incubated at 4° C. for 30 min. The cells were washed twice with PBS to remove unbound secondary antibodies. Finally, the cells were resuspended in 200 μL PBS. The Binding affinity of the tested antibody to AXL on the cell surface or the overall binding fluorescence intensity (MFI) of different tumor cells at the same antibody concentration was determined with a flow cytometer (FACSCalibur).
(§2) The chimeric antibody mAb002c could specifically recognize and bind tumor cells with AXL high expression.
(In general: A flow cytometer gives signals particle by particle.)

Assay [5] has the same target. Briefly: FACS on NCI-H1299 cells. On the procedure:
(§3) Then the obtained solutions were incubated at 4° C. for 1 h, the cells were washed twice with PBS to remove unbound primary antibody, and then the target cells were incubated with 200 μL PE-labeled secondary antibody (2 μg/mL) at 4° C. for 30 min. The cells were washed twice with PBS to remove unbound secondary antibody. Finally, the cells were resuspended in 200 μL PBS, and the binding affinity of the test antibody to AXL on the cell surface was determined by a flow cytometer (FACSCalibur)
AXL-high-expression lung cancer cells NCI-H1299 were used as target cells. 100 μL of the test antibody diluted in a 3-fold gradient was used as primary antibody, and mixed with 1×10⁵ NCI-H1299 cells suspended in 100 μL RPMI-1640 serum-free medium. The operation method was the same as above. Finally, the cells were resuspended in 200 μL PBS, and the binding affinity of the tested antibody to AXL on the cell surface was determined by a flow cytometer (FACSAria II).

The target is the same in assay [6]. In words: FACS, 5 ug/mL antibody, NCI-H1299 cells compared with AXL-low MDA-MB-453 cells. The procedure: as §1, §2
Assay [7] shares this target. In words: FACS on MDA-MB-231 cells. On the procedure:
as §3
This is another data set of the same source.

The target is the same in assay [8]. Briefly: FACS on MDA-MB-231 cells, mean EC50. The procedure: as §3

B1: mAb002c (antibody, V domains shown)
VH: QIQLQQSGPELVKPGASVKISCKASGYPFTDFYINWVKQKPGQGLEWIGWIYPGSGNTKYNEKFKGKATLTVDTSSSTAYMQLSSLTSEDTAVYFCARSTGFFDYWGQGTTLTVSS
VL: QIVLTQSPALMSASPGEKVTMTCSASSSIGYMYWYQQKPRSSPKSWIYLTSNLASGVPARFSGSGSGTSYSLTISSMEAEDAATYYCQQWSSNPPTFGAGTKLELK
notes: also called human-mouse chimeric antibody mAb002c
As to B1, the EC50 (usually the concentration needed to bring the measured effect to its halfway point) in assay [1] is 82 pM and 76 pM; in assay [2], 73 pM; in assay [3], 160 pM and 169 pM; in assay [5] it was 456 pM; in assay [8], 174 pM. For the same molecule, in assay [2], the “Highest reading (OD450 nm)” value stood at 3.79 OD450 nm. Further, the results for the “fold difference of binding rate (MFI) against MDA-MB-453 cells” value in assay [4] and in assay [6] were 91 times and 127 times, respectively. Also, the “Highest MFI value (FACSAria II)” value in assay [5] is 2260 MFI. Further, the “Highest MFI value (FACSCalibur)” value in assay [7] was 242 MFI.

The values above are taken from patent publication US20210214447A1 (SHANGHAI INSTITUTE OF MATERIA MEDICA CHINESE ACADEMY OF …, published 2021).
